Here are results for 5 molecules from US20250171532A1 (NB HEALTH LABORATORY, published 2025).

Residue numbers refer to the chain shown, from its start. Read-outs that look alike come from different tables or passages of the source.

Experiment [1] concerns the target T1, human LPA1 (human, UniProt Q92633 1-364).
T1 construct: Untagged, on human LPA1-stably expressing CHO cells (CHO-K1); also the endogenous receptor on the human lung fibroblast line printed as IMIR-90; also called human lysophosphatidic acid receptor 1; hLPA1
The experiment can be described thus: flow cytometry, human LPA1-stably expressing CHO cells, median fluorescence intensity. From the text:
(§1) The human LPA1-stably expressing CHO cell and the mouse LPA1-stably expressing CHO cell were washed with PBS, then detached from the cell culture dishes by an enzyme-free cell dissociation buffer (Thermo Fisher Scientific, Inc.), then washed with PBS, and then collected by centrifugation. The human LPA1-stably expressing CHO cell and the mouse LPA1-stably expressing CHO cell were suspended at 1×10⁷ cells/mL in Fc Block (Sci-Tech Biosciences, Inc.) diluted by 500 times in FACS buffer, and then allowed to stand at 4° C. for 30 minutes to block the cells. The cells were collected by centrifugation and suspended in FACS buffer at 4×10⁶ cells/mL, and this suspension was dispensed into a V-bottom 96-well plate (Thermo Fisher Scientific, Inc.) at 25 μL (1×10⁵ cells)/well. As primary antibodies, the eleven types of LPA1 antibodies produced and purified by the method described above and a mouse isotype control antibody (Fujifilm Wako Pure Chemicals Corporation) were diluted stepwise, which was added to each well at 25 μL/well, and allowed to stand at 4° C. for 1 hour. The cells were collected by centrifugation and washed with 120 μL of FACS buffer. This washing operation was repeated twice. To the cell sediment, 25 μL each of Goat Anti-Mouse IgG H&L (DyLight 650) (Abcam) that was a secondary antibody diluted by 500 times in FACS buffer was dispensed, then suspended, and then allowed to stand at 4° C. for 1 hour. The cells were washed twice, then suspended in 50 μL of FACS buffer, and the binding of antibodies to the cells was measured using a flow cytometer (Agilent Novocyte).
Subsequently, the binding activity of the human LPA1-stably expressing CHO cell to human LPA1 was measured according to the method in Example 6. A graph was created, in which a concentration of the antibody was plotted on the […] axis, and a median fluorescence intensity of the flow cytometer histogram was plotted on the horizontal axis. […] The intracellular cAMP signaling inhibitory activity was also measured according to the method in Example 7.
(In general: A flow cytometer gives signals particle by particle.)

Experiment [2] addresses T1, human LPA1. Kind of experiment: cell-based or functional assay.
Experiment [3] deals with T2, human LPA2 with FLAG tag (human LPA2 gene transfected cell) (human, UniProt Q9HBW0 1-348).
T2 construct: also called EDG4; not shown: FLAG tag added at the 5' terminal of the gene
T2 sequence (Q9HBW0 other isoform, or with tags, fused parts or gaps): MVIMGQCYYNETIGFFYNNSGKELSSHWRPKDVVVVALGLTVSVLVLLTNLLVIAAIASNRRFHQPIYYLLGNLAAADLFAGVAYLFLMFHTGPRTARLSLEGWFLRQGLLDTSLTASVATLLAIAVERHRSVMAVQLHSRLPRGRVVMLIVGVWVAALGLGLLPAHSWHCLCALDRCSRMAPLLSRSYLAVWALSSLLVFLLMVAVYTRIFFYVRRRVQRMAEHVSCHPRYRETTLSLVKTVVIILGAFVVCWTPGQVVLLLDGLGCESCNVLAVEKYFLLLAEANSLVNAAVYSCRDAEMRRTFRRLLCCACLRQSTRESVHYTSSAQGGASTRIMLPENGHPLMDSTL
Kind of experiment: flow cytometry, transfected HEK293FT cells, histogram shift. As for the experimental part: (§2) BTEK293FT cell was transfected with 10 μg of an expression vector carrying each synthetic gene using Lipofectamine 2000, to prepare a human LPA1 gene transfected cell, a mouse LPA1 gene transfected cell, a human LPA2 gene transfected cell, a mouse LPA2 gene transfected cell, a human LPA3 gene transfected cell, and a mouse LPA3 gene transfected cell.
(§3) The next day, the cells were washed with PBS, then detached from the cell culture dishes by an enzyme-free cell dissociation buffer (Thermo Fisher Scientific, Inc.), then washed with PBS, and then collected by centrifugation. Goat serum (Thermo Fisher Scientific, Inc.) was diluted by 2 times in FACS buffer (PBS containing 1% o of FBS), into which the cells were suspended at 1×10⁷ cells/mL. This suspension was allowed to stand at 4° C. for 30 minutes to block the cells. The cells were collected by centrifugation and suspended in FACS buffer at 4×10⁶ cells/mL, and this suspension was dispensed into a V-bottom 96-well plate (Thermo Fisher Scientific, Inc.) at 25 μL (1×10⁵ cells)/well.
(§4) The cells were collected by centrifugation and washed with 120 μL of FACS buffer. This washing operation was repeated twice. To the cell sediment, 25 μL each of Goat Anti-Mouse IgG H&L (DyLight 650) (Abcam) that was a secondary antibody diluted by 500 times in FACS buffer was dispensed, then suspended, and then allowed to stand at 4° C. for 1 hour. The cells were washed twice, then suspended in 50 μL of FACS buffer, and the whole content thereof was transferred to a V-bottom 96-well plate (Greiner), to measure the binding of antibodies to the cells using a flow cytometer (Agilent Novocyte).

Experiment [4] has as its target T3, human LPA3 with FLAG tag (human LPA3 gene transfected cell) (human, UniProt Q9UBY5 1-353).
T3 construct: also called EDG7; not shown: FLAG tag added at the 5' terminal of the gene
T3 sequence: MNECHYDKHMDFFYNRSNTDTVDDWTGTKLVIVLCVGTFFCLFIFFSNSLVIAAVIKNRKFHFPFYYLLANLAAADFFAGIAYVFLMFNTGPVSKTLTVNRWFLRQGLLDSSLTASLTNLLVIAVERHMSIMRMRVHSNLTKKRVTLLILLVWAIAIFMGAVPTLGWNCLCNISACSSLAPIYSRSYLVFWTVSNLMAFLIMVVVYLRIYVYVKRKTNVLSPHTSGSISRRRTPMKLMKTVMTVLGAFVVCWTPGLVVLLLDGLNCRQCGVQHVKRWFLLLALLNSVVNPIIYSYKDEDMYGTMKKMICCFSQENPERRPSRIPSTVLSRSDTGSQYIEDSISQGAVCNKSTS
Described as above. The method, then:
as §2, §3, §4

Experiment [5] addresses T4, mouse LPA3 with FLAG tag (mouse LPA3 gene transfected cell) (mouse, UniProt Q9EQ31 1-354).
T4 construct: not shown: FLAG tag added at the 5' terminal of the gene
T4 sequence: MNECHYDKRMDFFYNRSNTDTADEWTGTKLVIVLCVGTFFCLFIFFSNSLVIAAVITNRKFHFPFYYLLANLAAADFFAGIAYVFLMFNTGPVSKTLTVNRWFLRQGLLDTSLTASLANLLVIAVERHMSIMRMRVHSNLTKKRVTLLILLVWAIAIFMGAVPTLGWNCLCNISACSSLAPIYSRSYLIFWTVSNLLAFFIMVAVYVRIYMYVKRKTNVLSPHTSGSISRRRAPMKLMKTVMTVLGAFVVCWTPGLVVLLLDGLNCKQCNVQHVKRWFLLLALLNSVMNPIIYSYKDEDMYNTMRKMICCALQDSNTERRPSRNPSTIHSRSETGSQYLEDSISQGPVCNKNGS
The experiment is described as above. As for the experimental part: as §2, §3, §4

Experiment [6] has as its target T5, mouse LPA2 with FLAG tag (mouse LPA2 gene transfected cell) (mouse, UniProt Q9JL06 1-348).
T5 construct: not shown: FLAG tag added at the 5' terminal of the gene
The description is as above. As for the experimental part: as §2, §3, §4

The target of experiment [7] is T1, human LPA1. Kind of experiment: flow cytometry, human LPA1-stably expressing CHO cells, median fluorescence intensity.
Excerpt: as §1
(§5) A graph was created, in which a concentration of the antibody was plotted on the […] axis, and a median fluorescence intensity of the flow cytometer histogram was plotted on the horizontal axis. All of the eleven antibodies were confirmed to dose-dependently bind to the human LPA1-stably expressing CHO cell and the mouse LPA1-stably expressing CHO cell. The results of the binding of each antibody to the human LPA1-stably expressing CHO cell are presented in FIG. 2A to FIG. 2K, and the results of the binding of each antibody to the mouse LPA1-stably expressing CHO cell are presented in FIG. 3A to FIG. 3K.
This is another data set of the same source.

In experiment [8] the target is T6, mouse LPA1 (mouse, UniProt P61793 1-364). The experiment can be described thus: cell-based or functional assay.
T6 sequence (P61793 whole entry): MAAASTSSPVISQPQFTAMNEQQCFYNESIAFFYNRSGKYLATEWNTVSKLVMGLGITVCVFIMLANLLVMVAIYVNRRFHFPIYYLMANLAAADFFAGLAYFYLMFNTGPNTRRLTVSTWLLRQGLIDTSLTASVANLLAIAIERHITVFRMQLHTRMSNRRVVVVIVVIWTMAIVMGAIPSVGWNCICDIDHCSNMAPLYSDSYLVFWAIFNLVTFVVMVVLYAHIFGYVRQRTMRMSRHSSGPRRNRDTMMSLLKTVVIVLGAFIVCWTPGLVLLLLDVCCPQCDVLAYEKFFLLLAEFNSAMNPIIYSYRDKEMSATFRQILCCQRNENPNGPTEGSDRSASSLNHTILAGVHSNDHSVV
In experiment [9] the target is T1, human LPA1. Kind of experiment: cell-based or functional assay. The source holds these as a separate data set.
Experiment [10] has as its target T6, mouse LPA1. Kind of experiment: flow cytometry, mouse LPA1-stably expressing CHO cells, median fluorescence intensity.
Excerpt: as §1, §5

In experiment [11] the target is T6, mouse LPA1. The experiment can be described thus: cell-based or functional assay. This is another data set of the same source.
The target in experiment [12] is T1, human LPA1. The experiment can be described thus: cell-based or functional assay. The source holds these as a separate data set.

T1 sequence (Q92633 whole entry): as the sequence (P61793 whole entry) above, with A4I, S8I, Q22P, Y40H, V61I, D193E, H194N, V269I, N331S, N335T counted along it
T5 sequence (Q9JL06 whole entry): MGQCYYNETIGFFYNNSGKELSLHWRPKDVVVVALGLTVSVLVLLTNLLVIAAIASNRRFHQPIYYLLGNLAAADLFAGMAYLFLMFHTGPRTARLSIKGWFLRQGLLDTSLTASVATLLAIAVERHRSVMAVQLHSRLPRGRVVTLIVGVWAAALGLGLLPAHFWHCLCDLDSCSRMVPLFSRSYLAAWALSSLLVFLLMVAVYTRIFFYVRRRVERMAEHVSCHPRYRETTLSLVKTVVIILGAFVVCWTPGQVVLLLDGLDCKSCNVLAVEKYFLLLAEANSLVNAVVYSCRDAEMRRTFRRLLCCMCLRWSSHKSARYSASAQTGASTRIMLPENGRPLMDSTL

B1: h309-4-A-SS1 (antibody, human IgG1, kappa, L234A L235A, V domains shown)
VH: QVQLQESGPGLVKPSETLSLTCTASGYTFTSYGISWVRQTPGKGLEWIGEIYPRSGNTYYNEKFKGRATLSADKSKNQASLKLKSVTAADTAIYFCARESISRRLGWNFDVWGRGTLVTVSG
VL: DIQMTQTPSSLSASVGDRVTITCRASENIYSFLAWYQQKPGEAPKRVVYNAKTLTEGVPSRFSGSGSGTDFTLTISSLQPEDFATYYCQHHYGPPLTFGQGTKLEIKR
notes: also called humanized anti-LPA1 antibody
Take B1: in the experiment with human LPA1 [1], the EC50 (usually the concentration that produces a half-maximal response) stood at 4.9 nM. In addition, the “Intracellular cAMP signaling inhibition IC50” value with human LPA1 [2] was found to be 5.2 nM.

B2: 210309-4-A (antibody, mouse IgG1, V domains shown)
VH: QVQLQQSGAELARPGASVKLSCKASGYTFTSYGISWVKQRTGQGLEWIGEIYPRSGNTYYNEKFKGKATLTADKSSSTAYMELRSLTSEDSAVYFCARESISRRLGWNFDVWGTGTTVTVSS
VL: DIHMTQSPASLSASVGETVTITCRASENIYSFLAWYQQKQGKSPHLVVYNAKTLTEGVPSRFSGSGSGTHFSLKINSLQPEDFGIYYCQHHYGPPLTFGAGTKLELK
notes: Mouse monoclonal from human LPA1 immunization
Turning to B2, the binding result in [3], in experiment [4], in experiment [5] and in experiment [6] was “no binding (tested: 25 g/mL (so in the source))” throughout. The EC50 in the experiment with human LPA1 [1] stood at 1.4 nM; with human LPA1 [7], 1.5 nM; with mouse LPA1 [10], 1.1 nM. For the same molecule, the results for the “Intracellular cAMP signaling inhibition IC50” value in the experiment with mouse LPA1 [8], with human LPA1 [9] and with human LPA1 [2] were 23.8 nM, 5.3 nM and 4.5 nM, respectively. Further, the “Intracellular cAMP signaling inhibition (Inhibition rate %/100 nM)” value was 50% with mouse LPA1 [11] and 95% with human LPA1 [12].

B3: 309-4-A-Chimera (antibody, human IgG1, kappa, L234A L235A, V domains shown)
VH: B2 VH
VL: DIHMTQSPASLSASVGETVTITCRASENIYSFLAWYQQKQGKSPHLVVYNAKTLTEGVPSRFSGSGSGTHFSLKINSLQPEDFGIYYCQHHYGPPLTFGAGTKLELKR
notes: also called chimeric anti-LPA1 antibody
Regarding B3, the EC50 with human LPA1 [1] was 4.4 nM. The “Intracellular cAMP signaling inhibition IC50” value with human LPA1 [2] was found to be 1 nM.

B4: h309-4-A-BP1 (antibody, human IgG1, kappa, L234A L235A, V domains shown)
VH: QVQLVQSGAEVKKPGASVKVSCKASGYTFTSYGISWVRQAPGQGLEWMGEIYPRSGNTYYNEKFKGRVTLTADKSTSTAYMELRSLTSEDTAVYFCARESISRRLGWNFDVWGQGTTVTVSS
VL: DIQMTQSPSSLSASVGDTVTITCRASENIYSFLAWYQQKPGKAPKLLIYNAKTLTEGVPSRFSGSGSGTHFSLTINSLQPEDFGIYYCQHHYGPPLTFGQGTKLEIKR
notes: as for B1
In the case of B4, in the experiment with human LPA1 [1], the response was half-maximal at 4.3 nM (EC50). Also, the “Intracellular cAMP signaling inhibition IC50” value in the experiment with human LPA1 [2] came to 4.4 nM.

B5: h309-4-A-SG1 (antibody, human IgG1, kappa, L234A L235A, V domains shown)
VH: B4 VH with M48I, V68A, T87R, E89D, Q114T
VL: B1 VL with T7S, E42K, R46L, Q100A, I106L
notes: as for B1
Molecule B5 showed an EC50 in the experiment with human LPA1 [1] of 4.2 nM. The “Intracellular cAMP signaling inhibition IC50” value in the experiment with human LPA1 [2] was found to be 5.7 nM.
